Laboratory results published in US20260152571A1.

Tests used:
[1] = biological target: HLA-A2 on T2 cells without added peptide (human); assay: flow cytometry, T2 cells without peptide, antibody 10 µg/mL
[2] = biological target: MED13L/HLA complex on MED13L-pulsed T2 cells (human); assay: flow cytometry, T2 cells pulsed with 25 µM MED13L peptide, antibody 10 µg/mL
[3] = biological target: PIGQ/HLA complex on PIGQ-pulsed T2 cells (human); assay: flow cytometry, T2 cells pulsed with 25 µM PIGQ peptide, antibody 10 µg/mL

Row | Binder | Percentage of Positive Cells (%) [1] [%] | Percentage of Positive Cells (%) [2] [%] | Percentage of Positive Cells (%) [3] [%]
1 | 1G7-IgG1-SI (antibody, V domains shown) VH: QVQLVESGGGVVRPGGSLRLSCTASGFTFDDYGMTWVRQAPGKGLEWVSGINWNGGSTGYADSVKGRFTISRDNAKNSLFLQMNSLRAEDTALYYCARDQGIAVVGTHYYYYYGMDVWGQGTAVTVSS VL: EIVLTQSPATLSLSPGERATLSCRASQSFSSYLAWYQQKPGQAPRLLIFDTSNRATGIPARFSGSGSGTDFTLTISSLEPEDFAVYYCQQRSNWPLTFGGGTKVEIK | 5.32 | 5.12 | 5.12
2 | 3A6-IgG1-SI (antibody, V domains shown) VH: QVQLQESGPGMVKPSETLSLTCTVSGGSISYNYWSWIRQPPGKGLEWIGYIYHSGTTKYNPSLKSRVTMSVDTSKNHFSLKLNSVTAADTAVYYCARHEDYWFFDLWGRGTLVTVSS VL: DIQMTQSPSSLSASVGDRVTITCRASQGISNYLVWFQQKPGKAPKSLIYAASILQSGVPSKFSGSGSGTDFTLTINSLQPEDFATYYCQQYNTYPFTFGPGTKVDIK | 5.77 | 5.72 | 5.2
3 | 7B9-IgG1-SI (antibody, V domains shown) VH: EVQLVESGGGVVQPGGSLRLSCAASGFTFDDYAMHWVRQAPGKGLEWVSLISGDDGSTYYADSMKGRITISRDNSKNSLYLQMNSLRTEDTAMYYCAKASYGSGSYLYNYGMDVWGQGTTVTVFS VL: DIQLTQSPSSLSASVGDRVTITCQASQDIINYLNWYQQKPGKAPKLLIYDTSNLETGVPSRFSGSGSGTDFAFTINSLQPEDIATYYCQQFVNLPLTFGGGTKVEIK | 4.66 | 7.68 | 5.13
4 | 4F10-IgG1-SI (antibody, V domains shown) VH: QVQLQESGPGLVKPSETLSLTCTVSGGSISNYYWSWIRQPPGKGLEWIGYIYYSGSTNYNPSLKSRVNISVDTSKSQVSLKLNSVIAADTAVYYCARHEDYWYFDLWGRGTLVTVSS VL: DIQLTQSPSSLSASIRDRVTITCRASQDINNYLAWFQQKPGKAPKSLIYAVSSLESGVPSKFSGSGSGTDFTLTISSLQPEDFATYFCQQYNSYPFTFGPGTKVEIK | 7.67 | 13.1 | 7.37
5 | P01264-IgG1-SI (antibody, V domains shown) VH: EVQLVESGGGLVKPGGSLRLSCAASGFTFSNAWMNWVRQAPGKGLEWVGRIKSKTDGGTTDYAAPVKGRFTISRHDSKNTLYLQMNSLKTEDTAVYYCATDPRIAVTGTDYYYGMDVWGQGTTVTVSS VL: DIVMTQTPSFLSASVGDRVTITCRASQDISNYLNWYQQKPGKAPKLLIYDASNLETGVPSRFSGSGSGTDFTFTISSLQPEDIATYYCQQYDNLPITFGQGTRLEIK | 4.65 | 5.87 | 4.93
